Results as given in patent US20170246263A1 (SHIRE HUMAN GENETIC THERAPIES, published 2017).

T1: SORT1 on SORT1 overexpressing cells (Homo sapiens (Human), UniProt Q99523 78-831)
T1 construct: also called Sortilin overexpressing cells; SORT overexpressing cells
T1 sequence: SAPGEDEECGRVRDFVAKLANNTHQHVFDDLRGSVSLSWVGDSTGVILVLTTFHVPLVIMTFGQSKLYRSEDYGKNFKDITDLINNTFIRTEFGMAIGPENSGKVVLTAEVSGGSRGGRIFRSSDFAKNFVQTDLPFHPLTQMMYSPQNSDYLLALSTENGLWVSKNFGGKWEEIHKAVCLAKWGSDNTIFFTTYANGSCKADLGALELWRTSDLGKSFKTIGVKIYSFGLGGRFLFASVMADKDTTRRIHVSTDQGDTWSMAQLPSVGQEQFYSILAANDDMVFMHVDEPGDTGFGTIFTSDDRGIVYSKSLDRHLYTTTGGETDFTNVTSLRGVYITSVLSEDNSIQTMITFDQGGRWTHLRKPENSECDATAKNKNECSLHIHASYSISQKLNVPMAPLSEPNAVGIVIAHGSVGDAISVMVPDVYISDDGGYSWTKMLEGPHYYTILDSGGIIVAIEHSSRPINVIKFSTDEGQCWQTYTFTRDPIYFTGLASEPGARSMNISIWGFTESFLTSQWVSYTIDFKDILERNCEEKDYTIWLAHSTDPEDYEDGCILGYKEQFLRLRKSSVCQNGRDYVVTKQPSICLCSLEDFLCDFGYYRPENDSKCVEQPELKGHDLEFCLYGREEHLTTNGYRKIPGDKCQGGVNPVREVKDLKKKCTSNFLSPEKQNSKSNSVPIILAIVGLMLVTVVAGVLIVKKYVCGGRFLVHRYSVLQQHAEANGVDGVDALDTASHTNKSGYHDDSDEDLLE

T2: recombinant 6xHistidine tagged human SORT1 (human, UniProt Q99523 78-755)
T2 construct: Captured on the chip by an anti-His mAb; also called SORT1-6xHis; Sortilin-6xHis
T2 sequence: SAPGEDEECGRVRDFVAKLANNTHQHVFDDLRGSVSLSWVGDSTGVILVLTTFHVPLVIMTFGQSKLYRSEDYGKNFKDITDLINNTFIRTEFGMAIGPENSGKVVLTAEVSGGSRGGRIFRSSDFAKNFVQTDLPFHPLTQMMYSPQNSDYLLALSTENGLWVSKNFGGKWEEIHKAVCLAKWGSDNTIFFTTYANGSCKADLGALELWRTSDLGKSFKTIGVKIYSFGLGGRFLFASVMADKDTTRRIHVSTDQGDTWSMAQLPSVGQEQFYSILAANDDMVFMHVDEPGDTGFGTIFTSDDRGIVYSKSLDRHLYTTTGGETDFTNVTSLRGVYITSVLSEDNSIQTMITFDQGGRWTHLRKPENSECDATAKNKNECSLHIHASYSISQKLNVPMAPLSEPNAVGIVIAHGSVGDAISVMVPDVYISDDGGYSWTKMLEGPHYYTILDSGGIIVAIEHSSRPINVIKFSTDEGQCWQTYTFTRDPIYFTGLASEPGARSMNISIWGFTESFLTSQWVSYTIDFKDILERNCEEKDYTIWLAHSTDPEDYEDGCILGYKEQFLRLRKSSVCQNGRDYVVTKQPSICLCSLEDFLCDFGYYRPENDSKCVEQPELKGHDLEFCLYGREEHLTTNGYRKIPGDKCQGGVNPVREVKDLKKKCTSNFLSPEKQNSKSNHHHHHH

B1: Naglu-tPRGN fusion protein (enzyme)
chain: DEAREAAAVRALVARLLGPGPAADFSVSVERALAAKPGLDTYSLGGGGAARVRVRGSTGVAAAAGLHRYLRDFCGCHVAWSGSQLRLPRPLPAVPGELTEATPNRYRYYQNVCTQSYSFVWWDWARWEREIDWMALNGINLALAWSGQEAIWQRVYLALGLTQAEINEFFTGPAFLAWGRMGNLHTWDGPLPPSWHIKQLYLQHRVLDQMRSFGMTPVLPAFAGHVPEAVTRVFPQVNVTKMGSWGHFNCSYSCSFLLAPEDPIFPIIGSLFLRELIKEFGTDHIYGADTFNEMQPPSSEPSYLAAATTAVYEAMTAVDTEAVWLLQGWLFQHQPQFWGPAQIRAVLGAVPRGRLLVLDLFAESQPVYTRTASFQGQPFIWCMLHNFGGNHGLFGALEAVNGGPEAARLFPNSTMVGTGMAPEGISQNEVVYSLMAELGWRKDPVPDLAAWVTSFAARRYGVSHPDAGAAWRLLLRSVYNCSGEACRGHNRSPLVRRPSLQMNTSIWYNRSDVFEAWRLLLTSAPSLATSPAFRYDLLDLTRQAVQELVSLYYEEARSAYLSKELASLLRAGGVLAYELLPALDEVLASDSRFLLGSWLEQARAAAVSEAEADFYEQNSRYQLTLWGPEGNILDYANKQLAGLVANYYTPRWRLFLEALVDSVAQGIPFQQHQFDKNVFQLEQAFVLSKQRYPSQPRGDTVDLAKKIFLKYYPRWVAGSWGAPGGGGGAAAAAGGGGGGAPGGGGGAAAAAGGGGGGAPGGGGGAAAAAGGGGGGAPTKCLRREAPRWDAPLRDPALRQLL
notes: also called Naglu-tPGRN
B2: Naglu-SPP fusion protein (enzyme)
chain: DEAREAAAVRALVARLLGPGPAADFSVSVERALAAKPGLDTYSLGGGGAARVRVRGSTGVAAAAGLHRYLRDFCGCHVAWSGSQLRLPRPLPAVPGELTEATPNRYRYYQNVCTQSYSFVWWDWARWEREIDWMALNGINLALAWSGQEAIWQRVYLALGLTQAEINEFFTGPAFLAWGRMGNLHTWDGPLPPSWHIKQLYLQHRVLDQMRSFGMTPVLPAFAGHVPEAVTRVFPQVNVTKMGSWGHFNCSYSCSFLLAPEDPIFPIIGSLFLRELIKEFGTDHIYGADTFNEMQPPSSEPSYLAAATTAVYEAMTAVDTEAVWLLQGWLFQHQPQFWGPAQIRAVLGAVPRGRLLVLDLFAESQPVYTRTASFQGQPFIWCMLHNFGGNHGLFGALEAVNGGPEAARLFPNSTMVGTGMAPEGISQNEVVYSLMAELGWRKDPVPDLAAWVTSFAARRYGVSHPDAGAAWRLLLRSVYNCSGEACRGHNRSPLVRRPSLQMNTSIWYNRSDVFEAWRLLLTSAPSLATSPAFRYDLLDLTRQAVQELVSLYYEEARSAYLSKELASLLRAGGVLAYELLPALDEVLASDSRFLLGSWLEQARAAAVSEAEADFYEQNSRYQLTLWGPEGNILDYANKQLAGLVANYYTPRWRLFLEALVDSVAQGIPFQQHQFDKNVFQLEQAFVLSKQRYPSQPRGDTVDLAKKIFLKYYPRWVAGSWGAPGGGGGAAAAAGGGGGGAPGGGGGAAAAAGGGGGGAPGGGGGAAAAAGGGGGGAPQDRLDAPPPPAAPLPRWSGPIGVSWGLRAAAAGGAFPRGGRWRR

Assays:
[1] = target: T1, SORT1 on SORT1 overexpressing cells; assay: binding/uptake assay on SORT1 overexpressing cells; intracellular Naglu activity against fusion protein concentration; cellular uptake assay on SORT1 overexpressing cells, read as intracellular Naglu activity
Method: A cell line was established overexpressing SORT1, using standard technologies known in the art. […] After a specified period of time, the supernatant was removed and the cells were washed repeatedly. Then, cells were lysed and each sample was assayed for Naglu enzyme activity.

[2] = target: T2, recombinant 6xHistidine tagged human …; assay: SPR; SORT1-6xHis captured on anti-His mAb, Naglu-SPP 0.625-20 nM as analyte; value from the fit table under the sensorgrams
Method: (§1) Briefly, anti-His mAb (capturing molecule) was diluted in immobilization buffer and bound on the dextran surface of a SPR sensor chip housed in a microfluidic system. […] As the solution moved over the SPR sensor chip, the analyte bound to the capture complex and an increase in SPR signal (expressed in response units, RU) was observed. Finally, a solution without analyte was injected into the microfluidic device to detach bound […] from the capture complex, resulting in a decrease in SPR signal. The detailed experimental conditions are described in Table 6 below.

[3] = target: T1, SORT1 on SORT1 overexpressing cells; assay: cell-based or functional assay
[4] = target: T2, recombinant 6xHistidine tagged human …; assay: SPR; SORT1-6xHis captured by anti-His mAb, Naglu-SPP as analyte 0-20 nM
Method: as §1

Row | Binder | Kd [1] [nM] | Kd [2] [nM] | koff [2] [s⁻¹] | kon [2] [M⁻¹ s⁻¹] | Kd (cellular uptake: Naglu activity in lysates of SORT1 overexpressing cells) [A] [3] [nM] | Kd [4] [nM] | koff [4] [s⁻¹] | kon [4] [M⁻¹ s⁻¹]
1 | B1 | 392 |  |  |  |  |  |  | 
2 | B2 | 155 | 0.663 | 0.000708 | 1.07e+06 | 155 | ~0.66 | ~0.00071 | ~1.1e+06
